T1: CAPRIN-1 protein expressed on the membrane surface of human cancer cells (human, UniProt Q14444 2-709)
T1 sequence (looked up): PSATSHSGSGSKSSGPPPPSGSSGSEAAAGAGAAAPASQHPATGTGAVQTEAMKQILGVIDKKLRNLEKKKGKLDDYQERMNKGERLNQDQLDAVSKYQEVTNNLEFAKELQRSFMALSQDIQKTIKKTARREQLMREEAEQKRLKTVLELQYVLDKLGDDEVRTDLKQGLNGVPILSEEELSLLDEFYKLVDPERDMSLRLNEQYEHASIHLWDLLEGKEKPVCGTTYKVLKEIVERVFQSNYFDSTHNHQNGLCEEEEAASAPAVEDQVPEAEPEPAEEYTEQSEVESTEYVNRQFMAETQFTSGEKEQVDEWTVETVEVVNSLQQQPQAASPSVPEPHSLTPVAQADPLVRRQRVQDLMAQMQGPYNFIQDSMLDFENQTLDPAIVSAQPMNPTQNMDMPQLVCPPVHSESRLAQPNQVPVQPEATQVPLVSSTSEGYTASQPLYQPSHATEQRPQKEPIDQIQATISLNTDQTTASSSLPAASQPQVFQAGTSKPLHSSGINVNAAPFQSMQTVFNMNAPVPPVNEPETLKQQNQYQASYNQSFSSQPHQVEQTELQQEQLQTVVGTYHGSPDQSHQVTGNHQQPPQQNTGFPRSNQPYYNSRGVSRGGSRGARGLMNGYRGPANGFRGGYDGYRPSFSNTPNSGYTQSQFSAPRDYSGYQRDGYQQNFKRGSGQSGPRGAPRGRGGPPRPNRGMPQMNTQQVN


Target: T1, CAPRIN-1 protein expressed on the …
Assay: cell-based or functional assay

| Binder | ADCC cytotoxic activity (51Cr release) on 22Rv1 [%] | ADCC cytotoxic activity (51Cr release) on A-673 [%] | ADCC cytotoxic activity (51Cr release) on BT-474 [%] | ADCC cytotoxic activity (51Cr release) on Caki-2 [%] | ADCC cytotoxic activity (51Cr release) on FaDu [%] | ADCC cytotoxic activity (51Cr release) on G-361 [%] | ADCC cytotoxic activity (51Cr release) on HEC-1-A [%] | ADCC cytotoxic activity (51Cr release) on HT-29 [%] | ADCC cytotoxic activity (51Cr release) on HT-1080 [%] | ADCC cytotoxic activity (51Cr release) on HT-1376 [%] | ADCC cytotoxic activity (51Cr release) on Hep3B [%] | ADCC cytotoxic activity (51Cr release) on IM-9 [%] | ADCC cytotoxic activity (51Cr release) on MDA-MB-361 [%] | ADCC cytotoxic activity (51Cr release) on NCI-H2452 [%] | ADCC cytotoxic activity (51Cr release) on NCI-N87 [%] | ADCC cytotoxic activity (51Cr release) on NT/D1 [%] | ADCC cytotoxic activity (51Cr release) on OCI-AML5 [%] | ADCC cytotoxic activity (51Cr release) on OE33 [%] | ADCC cytotoxic activity (51Cr release) on Panc10.5 [%] | ADCC cytotoxic activity (51Cr release) on QG56 [%] | also measured |
| --- | --- | --- | --- | --- | --- | --- | --- | --- | --- | --- | --- | --- | --- | --- | --- | --- | --- | --- | --- | --- | --- |
| humanized antibody #1 (antibody, V domains shown) VH: EVQLVESGGGLVQPGGSLRLSCAASGFSLSSHSLGWVRQAPGKGLEWIGDIRSGGSAYYANWAKGRFTISRDNSKNTLYLQMNSLRAEDTAVYYCTRTNGPSDLTNRLDLWGQGTLVTVSS VL: AIQMTQSPSSLSASVGDRVTINCQASQSLYNNENLAWFQQKPGKAPKRLIYGASTLASGVSSRFSGSGSGTDFTLTISSLQPEDFAIYYCLGEFSCGSADCFAFGGGTKVEIK | ≥ 38 | ≥ 40 | ≥ 46 | ≥ 26 | ≥ 35 | ≥ 15 | ≥ 40 | ≥ 35 | ≥ 20 | ≥ 28 | ≥ 21 | ≥ 27 | ≥ 40 | ≥ 31 | ≥ 34 | ≥ 25 | ≥ 15 | ≥ 30 | ≥ 24 | ≥ 38 | ADCC cytotoxic activity (51Cr release) on RD-ES: ≥ 31%; ADCC cytotoxic activity (51Cr release) on RPM11666: ≥ 30%; ADCC cytotoxic activity (51Cr release) on Ramos: ≥ 15%; ADCC cytotoxic activity (51Cr release) on SKOV3: ≥ 27%; ADCC cytotoxic activity (51Cr release) on T24: ≥ 30%; ADCC cytotoxic activity (51Cr release) on TGBC14TKB: ≥ 25%; ADCC cytotoxic activity (51Cr release) on TT: ≥ 30%; ADCC cytotoxic activity (51Cr release) on U-87MG: ≥ 24% |
| humanized antibody #5 (antibody, V domains shown) VH: EVQLVESGGGLVQPGGSLRLSCAASGFSLSSHSLGWVRQAPGKGLEWIGDIRSGGSAYYANWAKGRFTISRDNSKNTLYLQMNSLRAEDTAVYFCTRTNGPSDLTNRLDLWGQGTLVTVSS VL: EQVLTQSPSSLSASVGDRVTINCQASQSLYNNENLAWFQQKPGKVPKRLIYGASTLASGVSSRFSGSGSGTEFTLTISNLQPEDFAIYYCLGEFSCGSADCFAFGGGTKVEIK | ≥ 45 | ≥ 46 | ≥ 50 | ≥ 33 | ≥ 40 | ≥ 21 | ≥ 45 | ≥ 40 | ≥ 25 | ≥ 40 | ≥ 25 | ≥ 30 | ≥ 45 | ≥ 39 | ≥ 38 | ≥ 30 | ≥ 18 | ≥ 33 | ≥ 30 | ≥ 42 | ADCC cytotoxic activity (51Cr release) on RD-ES: ≥ 40%; ADCC cytotoxic activity (51Cr release) on RPM11666: ≥ 36%; ADCC cytotoxic activity (51Cr release) on Ramos: ≥ 18%; ADCC cytotoxic activity (51Cr release) on SKOV3: ≥ 31%; ADCC cytotoxic activity (51Cr release) on T24: ≥ 33%; ADCC cytotoxic activity (51Cr release) on TGBC14TKB: ≥ 30%; ADCC cytotoxic activity (51Cr release) on TT: ≥ 35%; ADCC cytotoxic activity (51Cr release) on U-87MG: ≥ 29% |
| humanized antibody #4 (antibody, V domains shown) VH: EVQLVESGGGLVQPGGSLRLSCAASGFSLSSHSLGWVRQAPGKGLEWIGDIRSGGSAYYANWAKGRFTISRDNSKNTLYLQMNSLRAEDTAVYFCTRTNGPSDLTNRLDLWGQGTLVTVSS VL: EIVLTQSPSSLSASVGDRVTINCQASQSLYNNENLAWFQQKPGKVPKRLIYGASTLASGVSSRFSGSGSGTEFTLTISNLQPEDFATYYCLGEFSCGSADCFAFGGGTKVEIK | ≥ 45 | ≥ 46 | ≥ 50 | ≥ 33 | ≥ 40 | ≥ 21 | ≥ 45 | ≥ 40 | ≥ 25 | ≥ 40 | ≥ 25 | ≥ 30 | ≥ 45 | ≥ 39 | ≥ 38 | ≥ 30 | ≥ 18 | ≥ 33 | ≥ 30 | ≥ 42 | ADCC cytotoxic activity (51Cr release) on RD-ES: ≥ 40%; ADCC cytotoxic activity (51Cr release) on RPM11666: ≥ 36%; ADCC cytotoxic activity (51Cr release) on Ramos: ≥ 18%; ADCC cytotoxic activity (51Cr release) on SKOV3: ≥ 31%; ADCC cytotoxic activity (51Cr release) on T24: ≥ 33%; ADCC cytotoxic activity (51Cr release) on TGBC14TKB: ≥ 30%; ADCC cytotoxic activity (51Cr release) on TT: ≥ 35%; ADCC cytotoxic activity (51Cr release) on U-87MG: ≥ 29% |
| humanized antibody #3 (antibody, V domains shown) VH: EVQLVESGGGLVQPGGSLRLSCAASGFSLSSHSLGWVRQAPGKGLEWIGDIRSGGSAYYANWAKGRFTISRDNSKNTLYLQMNSLRAEDTAVYYCTRTNGPSDLTNRLDLWGQGTLVTVSS VL: EQVLTQSPSSLSASVGDRVTINCQASQSLYNNENLAWFQQKPGKVPKRLIYGASTLASGVSSRFSGSGSGTEFTLTISNLQPEDFAIYYCLGEFSCGSADCFAFGGGTKVEIK | ≥ 45 | ≥ 46 | ≥ 50 | ≥ 33 | ≥ 40 | ≥ 21 | ≥ 45 | ≥ 40 | ≥ 25 | ≥ 40 | ≥ 25 | ≥ 30 | ≥ 45 | ≥ 39 | ≥ 38 | ≥ 30 | ≥ 18 | ≥ 33 | ≥ 30 | ≥ 42 | ADCC cytotoxic activity (51Cr release) on RD-ES: ≥ 40%; ADCC cytotoxic activity (51Cr release) on RPM11666: ≥ 36%; ADCC cytotoxic activity (51Cr release) on Ramos: ≥ 18%; ADCC cytotoxic activity (51Cr release) on SKOV3: ≥ 31%; ADCC cytotoxic activity (51Cr release) on T24: ≥ 33%; ADCC cytotoxic activity (51Cr release) on TGBC14TKB: ≥ 30%; ADCC cytotoxic activity (51Cr release) on TT: ≥ 35%; ADCC cytotoxic activity (51Cr release) on U-87MG: ≥ 29% |
| humanized antibody #9 (antibody, V domains shown) VH: EQSLVESGGGLVQPGGSLRLSCAASGFSLSSHSLGWVRQAPGKGLEWIGDIRSGGSAYYANWAKGRFTISRDNSKNTLYLQMNSLRAEDTAVYYCTRTNGPSDLTNRLDLWGQGTLVTVSS VL: DIVLTQSPSSLSASVGDRVTINCQASQSLYNNENLAWFQQKPGKVPKRLIYGASTLASGVSSRFSGSGSGTEFTLTISSLQCEDFAIYYCLGEFSCGSADCFAFGGGTKVEIK | ≥ 38 | ≥ 40 | ≥ 46 | ≥ 26 | ≥ 35 | ≥ 15 | ≥ 40 | ≥ 35 | ≥ 20 | ≥ 28 | ≥ 21 | ≥ 27 | ≥ 40 | ≥ 31 | ≥ 34 | ≥ 25 | ≥ 15 | ≥ 30 | ≥ 24 | ≥ 38 | ADCC cytotoxic activity (51Cr release) on RD-ES: ≥ 31%; ADCC cytotoxic activity (51Cr release) on RPM11666: ≥ 30%; ADCC cytotoxic activity (51Cr release) on Ramos: ≥ 15%; ADCC cytotoxic activity (51Cr release) on SKOV3: ≥ 27%; ADCC cytotoxic activity (51Cr release) on T24: ≥ 30%; ADCC cytotoxic activity (51Cr release) on TGBC14TKB: ≥ 25%; ADCC cytotoxic activity (51Cr release) on TT: ≥ 30%; ADCC cytotoxic activity (51Cr release) on U-87MG: ≥ 24% |

Reference: patent US20160297889A1 (TORAY INDUSTRIES, published 2016)
